Assay results: US20230140797A1 (published 2023)
Residue numbers refer to the chain shown, from its start. Like-named read-outs stand apart in the source and are kept apart here.

How the values were obtained:
human IgA (hIgA) = human IgA (hIgA) (human); assay: Biacore T200 SPR
[1] = target: T1, human FcγRIIa type R extracellular domain with C-terminal His tag (human, UniProt P12318 34-217); assay: Biacore SPR
T1 sequence (looked up): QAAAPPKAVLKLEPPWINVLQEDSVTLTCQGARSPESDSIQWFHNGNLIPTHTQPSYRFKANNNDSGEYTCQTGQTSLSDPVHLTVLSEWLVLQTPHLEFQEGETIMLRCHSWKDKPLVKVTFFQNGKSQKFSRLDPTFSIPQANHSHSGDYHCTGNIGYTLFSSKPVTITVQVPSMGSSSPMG

[2] = target: T2, human FcγRIIb extracellular domain with C-terminal His tag (human, UniProt P31994 43-217); assay: Biacore SPR
T2 sequence (looked up): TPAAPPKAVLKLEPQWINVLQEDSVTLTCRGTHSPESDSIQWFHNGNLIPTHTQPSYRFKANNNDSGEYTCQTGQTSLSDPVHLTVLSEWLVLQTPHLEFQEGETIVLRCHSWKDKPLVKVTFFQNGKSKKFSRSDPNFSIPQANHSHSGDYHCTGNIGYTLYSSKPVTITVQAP

[3] = target: human FcγRIIIa type V extracellular domain with C-terminal His tag (human, UniProt P08637 17-208); assay: SPR
Target sequence in this assay (P08637 17-208 F176V): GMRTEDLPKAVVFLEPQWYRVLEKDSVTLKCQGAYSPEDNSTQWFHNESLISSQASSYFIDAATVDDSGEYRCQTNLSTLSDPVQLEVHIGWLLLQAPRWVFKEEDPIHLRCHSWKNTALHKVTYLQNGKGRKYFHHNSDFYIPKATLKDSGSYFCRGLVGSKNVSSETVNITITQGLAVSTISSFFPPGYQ

[4] = target: human FcγRIIIa type V extracellular domain with C-terminal His tag (human, UniProt P08637 17-208); assay: SPR; remark: listed apart in the source
Target sequence in this assay (P08637 17-208 F176V): as above

[5] = target: T3, human FcγRIIa type H extracellular domain with C-terminal His tag (human, UniProt P12318 34-217); assay: SPR
T3 sequence (looked up): T1 sequence (looked up) with R134H

[6] = target: human FcγRIa extracellular domain with C-terminal His tag (human, UniProt P12314 16-292); assay: SPR
Target sequence in this assay (P12314 16-292): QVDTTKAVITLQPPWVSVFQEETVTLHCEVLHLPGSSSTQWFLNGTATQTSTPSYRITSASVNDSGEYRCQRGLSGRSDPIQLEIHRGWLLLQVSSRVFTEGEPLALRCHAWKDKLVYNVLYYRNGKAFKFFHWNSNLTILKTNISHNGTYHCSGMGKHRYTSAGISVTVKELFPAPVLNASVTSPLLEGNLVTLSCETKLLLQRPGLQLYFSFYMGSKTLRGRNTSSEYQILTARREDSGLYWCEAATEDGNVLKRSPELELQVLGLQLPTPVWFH

[7] = target: T4, human FcγRIIb extracellular domain with C-terminal His tag (human, UniProt P31994 43-217); assay: SPR
T4 sequence (looked up): T2 sequence (looked up)

[8] = target: T4, human FcγRIIb extracellular domain with …; assay: ratio of SPR KD values
[9] = target: T5, human FcγRIIb extracellular domain with C-terminal His tag (human, UniProt P31994 43-217); assay: SPR; remark: listed apart in the source
T5 sequence (looked up): T2 sequence (looked up)

[10] = target: T6, human FcγRIIa type H extracellular domain with C-terminal His tag (human, UniProt P12318 34-217); assay: SPR; remark: listed apart in the source
T6 sequence (looked up): T1 sequence (looked up) with R134H

[11] = target: T5, human FcγRIIb extracellular domain with …; assay: SPR; remark: listed apart in the source
[12] = target: human FcγRIa extracellular domain with C-terminal His tag (human, UniProt P12314 16-292); assay: SPR; remark: listed apart in the source
Target sequence in this assay (P12314 16-292): as above

[13] = target: T5, human FcγRIIb extracellular domain with …; assay: SPR; remark: listed apart in the source
[14] = target: T7, human FcγRIIIa type V extracellular domain with C-terminal His tag (human, UniProt P08637 17-208); assay: SPR; remark: listed apart in the source
T7 sequence (P08637 17-208 F176V): as the sequence (P08637 17-208 F176V) above

[15] = target: T8, human FcγRIIb extracellular domain with C-terminal His tag (human, UniProt P31994 43-217); assay: SPR Biacore, ratio of KDs
T8 sequence (looked up): T2 sequence (looked up)

[16] = target: T9, human FcγRIIa type R extracellular domain with C-terminal His tag (human, UniProt P12318 34-217); assay: SPR Biacore, kinetic fit
T9 sequence (looked up): T1 sequence (looked up)

[17] = target: T10, human FcγRIIa type H extracellular domain with C-terminal His tag (human, UniProt P12318 34-217); assay: SPR; remark: listed apart in the source
T10 sequence (looked up): T1 sequence (looked up) with R134H

[18] = target: T5, human FcγRIIb extracellular domain with …; assay: SPR; remark: listed apart in the source
[19] = target: T11, human FcγRIIa type H extracellular domain with C-terminal His tag (human, UniProt P12318 34-217); assay: SPR Biacore, KD by Equation 2
T11 sequence (looked up): T1 sequence (looked up) with R134H

[20] = target: T12, human FcγRIIa type R extracellular domain with C-terminal His tag (human, UniProt P12318 34-217); assay: SPR
T12 sequence (looked up): T1 sequence (looked up)

[21] = target: T13, human FcγRIIa type R extracellular domain with C-terminal His tag (human, UniProt P12318 34-217); assay: SPR; remark: listed apart in the source
T13 sequence (looked up): T1 sequence (looked up)

[22] = target: T14, human FcγRIIa type R (131Arg) extracellular domain with C-terminal His tag (human, UniProt P12318 34-217); assay: SPR
T14 sequence (looked up): T1 sequence (looked up)

[23] = target: T15, human FcγRIIa type H (131His) extracellular domain with C-terminal His tag (human, UniProt P12318 34-217); assay: SPR
T15 sequence (looked up): T1 sequence (looked up) with R134H

[24] = target: T14, human FcγRIIa type R (131Arg) …; assay: ratio of SPR KDs
[25] = target: T7, human FcγRIIIa type V extracellular …; assay: SPR; remark: listed apart in the source

B1: GA2-IgG1 (antibody, V domains shown)
VH: QVQLVQSGAEVKKPGSSVKVSCKASGGTFSSYAISWVRQAPGQGLEWMGGIIPIFGTANYAQKFQGRVTITADESTSTAYMELSSLRSEDTAVYYCARPRWETAISSDAFDIWGQGTMVTVSS
VL: DIQMTQSPSSLSASVGDRVTITCRASQSISDDLNWYQQKPGKAPKLLIYEASNLQSGVPSRFSGSGSGTDFTLTISSLQPEDFATYYCQQHSSSPLTFGQGTKVEIKR
Human IgA (hIgA)
  Ca-dependent hIgA-binding activity (fold): 100 times

B2: IL6R-BP478/IL6R-L (antibody)
heavy: QVQLQESGPGLVKPSETLSLTCAVSGHSISHDHAWSWVRQPPGEGLEWIGFISYSGITNYNPSLQGRVTISRDNSKNTLYLQMNSLRAEDTAVYYCARSLARTTAMDYWGEGTLVTVSSASTKGPSVFPLAPCSRSTSESTAALGCLVKDYFPEPVTVSWNSGALTSGVHTFPAVLQSSGLYSLSSVVTVPSSSLGTKTYTCNVDHKPSNTKVDKRVESKYGPPCPPCPAPDLLGDDSVFLFPPKPKDTLMISRTPEVTCVVVDVSDEDGEVKFNWYVDGVEVHNAKTKPREEQDNSTYRVVSVLTVLHQDWLNGKEYKCKVSNKALPRPIEKTISKAKGQPREPQVYTLPPSRDELTKNQVSLTCLVKGFYPSDIAVEWESNGQPENNYKTTPPVLDSDGSFFLYSKLTVDKSRWQQGNVFSCSVMHEALHNHYTQESLSLSP
light: not shown
[1]
  fold binding against IL6R-BP230/IL6R-L: 0.9 times
[2]
  fold binding against IL6R-BP230/IL6R-L: 1.1 times

B3: IL6R-BP176/IL6R-L (antibody, human IgG1, kappa)
heavy: QVQLQESGPGLVKPSETLSLTCAVSGHSISHDHAWSWVRQPPGEGLEWIGFISYSGITNYNPSLQGRVTISRDNSKNTLYLQMNSLRAEDTAVYYCARSLARTTAMDYWGEGTLVTVSSASTKGPSVFPLAPSSKSTSGGTAALGCLVKDYFPEPVTVSWNSGALTSGVHTFPAVLQSSGLYSLSSVVTVPSSSLGTQTYICNVNHKPSNTKVDKKVEPKSCDKTHTCPPCPAPDLLGGDSVFLFPPKPKDTLMISRTPEVTCVVVDVSHEDPEVKFNWYVDGVEVHNAKTKPREEQYNSTYRVVSVLTVLHQDWLNGKEYKCKVSNDALPKPIEKTISKAKGQPREPQVYTLPPSRDELTKNQVSLTCLVKGFYPSDIAVEWESNGQPENNYKTTPPVLDSDGSFFLYSKLTVDKSRWQQGNVFSCSVMHEALHNHYTQESLSLSP
light: not shown
[3]
  Kd: 54 nM

B4: IL6R-BP199/IL6R-L (antibody, human IgG1, kappa)
heavy: B3 heavy with D328A, K332R
light: not shown
[4]
  Kd: 61000 nM
[5]
  Kd: 28000 nM
[6]
  Kd: 6.4 nM
[7]
  Kd: 490 nM
[8]
  KD (IIb) of the parent polypeptide/KD (IIb) of the altered polypeptide: 6.3 fold

B5: IL6R-BP540/IL6R-L (antibody, human IgG1, kappa)
heavy: B3 heavy with D235E, G239D, V266I, H270E, P273G, E274P, Y298D, D328K, K332R
light: not shown
[9]
  KD (IIaH)/KD (IIb): 803
[10]
  Kd: 4800 nM
[11]
  KD (IIaR)/KD (IIb): 36.8

B6: IL6R-BP266/IL6R-L (antibody, human IgG1, kappa)
heavy: B3 heavy with G239D, H270E, P273G, D328K, K332R
light: not shown
[12]
  Kd: 1400 nM

B7: IL6R-BP538/IL6R-L (antibody, human IgG1, kappa)
heavy: B3 heavy with D235E, G239D, V266I, H270E, P273G, D328K, K332R
light: not shown
[9]
  KD (IIaH)/KD (IIb): 566
[13]
  KD (IIb) of parent polypeptide/KD (IIb) of altered polypeptide: 507
[11]
  KD (IIaR)/KD (IIb): 30.6

B8: IL6R-BP253/IL6R-L (antibody, human IgG1, kappa)
heavy: B3 heavy with D235E, D240P, S269E, D328K, L330F, K332A
light: not shown
[14]
  Kd: 3800 nM

B9: IL6R-BP269/IL6R-L (antibody, human IgG1, kappa)
heavy: B3 heavy with D235E, G239D, H270E, P273G, Y298D, D328K, K332A
light: not shown
[12]
  Kd: 1400 nM

B10: IL6R-BP120/IL6R-L (antibody, human IgG1, kappa)
heavy: B3 heavy with D235E, D328E, K332A
light: not shown
[15]
  KD (IIb) of the parent polypeptide/KD (IIb) of the altered polypeptide: 3 fold (parent IL6R-B3/IL6R-L)
[16]
  Kd: 5600 nM

B11: IL6R-BP179/IL6R-L (antibody, human IgG1, kappa)
heavy: B3 heavy with D235E, G239D, P273G, D328A
light: not shown
[17]
  Kd: 18000 nM

B12: IL6R-BP198/IL6R-L (antibody, human IgG1, kappa)
heavy: B3 heavy with L236Y, H270D, P273G, D328A
light: not shown
[8]
  KD (IIb) of the parent polypeptide/KD (IIb) of the altered polypeptide: 15.7 fold

B13: IL6R-BP181/IL6R-L (antibody, human IgG1, kappa)
heavy: B3 heavy with P273G, D328A
light: not shown
[17]
  Kd: 28000 nM

B14: BP505 (antibody, human IgG1, kappa)
heavy: B3 heavy with G239D, V266I, S269A, H270E, P273G, E274D, D328K, K332A
light: not shown
[9]
  KD (IIaH)/KD (IIb): 514
[18]
  Kd: 2100 nM
[11]
  KD (IIaR)/KD (IIb): 20

B15: IL6R-BP119/IL6R-L (antibody, human IgG1, kappa)
heavy: B3 heavy with D235E, D328M, K332A
light: not shown
[15]
  KD (IIb) of the parent polypeptide/KD (IIb) of the altered polypeptide: 2.7 fold (parent IL6R-B3/IL6R-L)
[16]
  Kd: 99 nM

B16: BP564 (antibody, human IgG1, kappa)
heavy: B3 heavy with D235E, G239D, H270E, P273G, E274D, Y298D, D328K, K332R
light: not shown
[9]
  KD (IIaH)/KD (IIb): 454
[18]
  Kd: 2.2 nM
[11]
  KD (IIaR)/KD (IIb): 26.2

B17: IL6R-2B171/IL6R-L (antibody, human IgG1, kappa)
heavy: B3 heavy with D235E, V325L, D328K, K332A
light: not shown
[19]
  Kd: 340000 nM
[15]
  KD (IIb) of the parent polypeptide/KD (IIb) of the altered polypeptide: 2.9 fold (parent IL6R-B3/IL6R-L)

B18: IL6R-BP559/IL6R-L (antibody, human IgG1, kappa)
heavy: B3 heavy with D235E, V266I, S269A, H270E, P273G, E274D, Y298D, D328K, K332A
light: not shown
[9]
  KD (IIaH)/KD (IIb): 712
[20]
  Kd: 16 nM
[11]
  KD (IIaR)/KD (IIb): 58.4

B19: IL6R-BP192/IL6R-L (antibody, human IgG1, kappa)
heavy: B3 heavy with H270D, P273G, Y298D, D328K
light: not shown
[6]
  Kd: 6.5 nM
[21]
  Kd: 2500 nM

B20: IL6R-BP497/IL6R-L (antibody, human IgG1, kappa)
heavy: B3 heavy with G239D, V266I, S269A, H270E, P273G, D328K, A329G, K332R
light: not shown
[22]
  Kd: 35 nM
[23]
  Kd: 850 nM
[24]
  KD (IIaR) of parent polypeptide/KD (IIaR) of altered polypeptide: 12.9
[25]
  Kd: 20000 nM

B21: IL6R-BP107/IL6R-L (antibody, human IgG1, kappa)
heavy: B3 heavy with D235E, H270E, D328K, K332A
light: not shown
[19]
  Kd: 32000 nM
[15]
  KD (IIb) of the parent polypeptide/KD (IIb) of the altered polypeptide: 3.3 fold (parent IL6R-B3/IL6R-L)
